Laboratory results: patent publication US9969998B2, “Compositions of adenosine deaminase-2 (ADA2), variants thereof and methods of using same” (Halozyme, Inc., priority 2014, dated 2018)
Read-outs that look alike come from different tables or passages of the source. One block for each molecule: values may come before it.

What was measured:
ADA2 = biological target: T1, ADA2 (Homo sapiens, UniProt Q9NZK5); conditions: cited from earlier work
T1 sequence (Q9NZK5 30-511): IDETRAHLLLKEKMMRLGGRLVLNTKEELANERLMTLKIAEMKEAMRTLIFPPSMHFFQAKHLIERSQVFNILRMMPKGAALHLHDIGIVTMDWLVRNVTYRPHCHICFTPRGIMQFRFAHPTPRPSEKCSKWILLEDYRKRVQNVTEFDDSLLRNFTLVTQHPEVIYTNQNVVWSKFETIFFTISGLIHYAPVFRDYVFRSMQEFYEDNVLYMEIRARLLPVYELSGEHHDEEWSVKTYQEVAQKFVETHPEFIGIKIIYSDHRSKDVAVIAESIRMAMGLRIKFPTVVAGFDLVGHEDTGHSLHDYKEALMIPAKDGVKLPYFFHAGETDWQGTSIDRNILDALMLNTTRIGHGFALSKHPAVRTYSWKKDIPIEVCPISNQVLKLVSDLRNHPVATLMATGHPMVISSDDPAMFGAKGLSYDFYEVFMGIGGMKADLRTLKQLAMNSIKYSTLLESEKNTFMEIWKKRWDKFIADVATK

ADA1 = biological target: T2, ADA1 (Homo sapiens, UniProt P00813); conditions: cited from earlier work
T2 sequence (P00813 1-363): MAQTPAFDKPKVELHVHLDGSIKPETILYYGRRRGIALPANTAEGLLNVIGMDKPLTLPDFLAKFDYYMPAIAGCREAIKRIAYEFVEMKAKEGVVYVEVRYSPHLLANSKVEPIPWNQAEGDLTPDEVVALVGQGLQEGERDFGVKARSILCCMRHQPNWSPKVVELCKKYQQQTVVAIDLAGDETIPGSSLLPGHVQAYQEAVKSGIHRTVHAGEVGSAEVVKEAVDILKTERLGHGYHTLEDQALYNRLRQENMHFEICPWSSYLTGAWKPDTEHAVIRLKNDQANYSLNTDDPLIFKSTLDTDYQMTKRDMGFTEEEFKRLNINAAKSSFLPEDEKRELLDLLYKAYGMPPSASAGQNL

[1] = 37° C.; for Plasma incubated mean adenosine deaminase activity: 0.17 mg/ml in 25% BALB/c mouse plasma; for PBS incubated mean adenosine deaminase activity: 0.17 mg/ml in PBS 0.2% BSA
[2] = Heparin binding ELISA (heparin coated microtiter plate); conditions: for Average OD450, heparin binding ELISA: 3 μM protein
In short: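 Plates coated with 200 μg/mL heparin in Na2CO3 buffer pH 9.6 overnight at 4° C, then milk-blocked. FLAG-tagged rHuADA2 variants added at 3 μM for 2 h at room temperature. Bound protein detected with HRP-anti-FLAG and TMB, read as OD450.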

[3] = Heparin binding capture ELISA (biotin-heparin on streptavidin plate); conditions: PEGylated and non-PEGylated forms (Table 22)
Method: Heparin binding of PEGylated rHuADA2 or variants was assessed by capture ELISA. Binding of rHuADA1 was assessed as a negative control. 100 μL of 0.2 mg/mL biotin-heparin (Sigma-Aldrich, St. Louis, Mo.; Cat No. B9806-10MG) was added to a streptavidin coated 96-well plate (Thermo Fisher Scientific, Rockford, Ill.; Cat. No. 15520), and incubated at room temperature for 1 hour. The plate was washed 6 times with PBS. Then, 150 μL of […] rHuADA2 was added to the heparin coated plate, titrated in 3× serial dilutions, and incubated at room temperature for 2 hours. The plate was then washed 6 times with PBS. A 1000× dilution of goat HRP-anti-FLAG pAb (Abcam, Cambridge, UK; Cat. No. Ab1238) was added to the ELISA plate and incubated at room temperature for 1 hour. The ELISA plate was then washed 6 times with phosphate buffered saline with Tween (PBST) and developed with the 3,3′,5,5′-Tetramethylbenzidine (TMB) substrate solution (Pierce, Thermo Fisher Scientific, Rockford, Ill.) according the manufacturer's instructions and reading the optical density at 450 nm (OD450) on a plate reader.

[4] = Stability of ADA activity in plasma; type: in vitro ADME, mouse; conditions: long incubation (e.g., 24 hours) in plasma
Method: For therapeutic uses, such as for treatment of tumors or cancers, it is desirable to administer to the subject a dosage of ADA2 that will maintain plasma adenosine deaminase (ADA) activity for a sufficient time for therapeutic effect. […] The plasma stability of any ADA2 described herein, such as a wildtype, variant or conjugate, can be determined by measuring the changes in enzymatic activity and/or other physical properties, before and after incubation in plasma, e.g., ex vivo mammalian plasma.
Stability can be assessed in vitro or in vivo. For example, stability can be tested after exposure to plasma for a desired length of time, which can be empirically determined or selected by a skilled artisan depending on the desired length of time. For example, the incubation time can be at least 1 hour, such as at least 2, 3, 4, 5, 10, 15, 20, 24, 30, 36, 48, 60, 72 hours or more. The protein can be directly administered systemically, such as intravenously, and activity can be assessed. In other examples, the protein can be subject to appropriate incubation conditions in vitro. In one example, the stability of ADA activity of any ADA2 provided herein can be measured after incubation at 37° C., in 25% ex vivo plasma or serum, such as human or non-human plasma or serum, for example, mouse plasma. […]

[5] = adenosine deaminase activity, cited from earlier work
[6] = cited from earlier work

Molecule: OC[C@H]1O[C@@H](n2cnc3c2N=CNC[C@H]3O)C[C@@H]1O [2′-deoxycoformycin]
inhibition of ADA2 (ADA2): potent inhibitors

Molecule: OC[C@H]1O[C@@H](n2cnc3c2N=CNC[C@H]3O)[C@H](O)[C@@H]1O [Coformycin]
inhibition of ADA1 (ADA1): potent inhibitors
inhibition of ADA2 (ADA2): potent inhibitors

Molecule: CCCCCC[C@H]([C@H](C)O)n1cnc2c(N)ncnc21 [EHNA, (+)-erythro-9-(2-hydroxy-3-nonyl)adenine]
inhibition of ADA1 (ADA1): selectively inhibits ADA1
inhibition of ADA2 (ADA2): does not inhibit ADA2

Average OD450, heparin binding ELISA ([2]; Set 1): 0.07
Average OD450, heparin binding ELISA ([2]; Set 2): 0.06
Heparin Binding ELISA Average OD450 ([2]; single and S265N combination variants (Table 34)): −0.02
Average OD450, heparin binding capture ELISA [3]: <0.02
B1: WT ADA1: recombinant human adenosine deaminase 1 with Strep-tag, mature SEQ ID NO:66/67 (protein, listed as Homo sapiens)
chain 1: AQTPAFDKPKVELHVHLDGSIKPETILYYGRRRGIALPANTAEGLLNVIGMDKPLTLPDFLAKFDYYMPAIAGCREAIKRIAYEFVEMKAKEGVVYVEVRYSPHLLANSKVEPIPWNQAEGDLTPDEVVALVGQGLQEGERDFGVKARSILCCMRHQPNWSPKVVELCKKYQQQTVVAIDLAGDETIPGSSLLPGHVQAYQEAVKSGIHRTVHAGEVGSAEVVKEAVDILKTERLGHGYHTLEDQALYNRLRQENMHFEICPWSSYLTGAWKPDTEHAVIRLKNDQANYSLNTDDPLIFKSTLDTDYQMTKRDMGFTEEEFKRLNINAAKSSFLPEDEKRELLDLLYKAYGMPPSASAGQNL
chain 2: AQTPAFDKPKVELHVHLDGSIKPETILYYGRRRGIALPANTAEGLLNVIGMDKPLTLPDFLAKFDYYMPAIAGCREAIKRIAYEFVEMKAKEGVVYVEVRYSPHLLANSKVEPIPWNQAEGDLTPDEVVALVGQGLQEGERDFGVKARSILCCMRHQPNWSPKVVELCKKYQQQTVVAIDLAGDETIPGSSLLPGHVQAYQEAVKSGIHRTVHAGEVGSAEVVKEAVDILKTERLGHGYHTLEDQALYNRLRQENMHFEICPWSSYLTGAWKPDTEHAVIRLKNDQANYSLNTDDPLIFKSTLDTDYQMTKRDMGFTEEEFKRLNINAAKSSFLPEDEKRELLDLLYKAYGMPPSASAGQNLSGSGSWSHPQFEK
modifications: Strep-tag; mature ADA1 protein; mature ADA1-linker-Strep
Plasma incubated mean adenosine deaminase activity ([1]; 0 hr): 71,663.6 mU/mL
PBS incubated mean adenosine deaminase activity ([1]; 0 hr): 61,077.0 mU/mL
Plasma incubated mean adenosine deaminase activity ([1]; 4 hr): 46,772.1 mU/mL
PBS incubated mean adenosine deaminase activity ([1]; 4 hr): 59,544.8 mU/mL
activity retained in PBS/BSA control ([1]; 24 hours): greater than 80%
activity retained after treatment with plasma ([1]; 24 hours, mouse plasma): less than 1%
Plasma incubated mean adenosine deaminase activity ([1]; 24 hr): 673.6 mU/mL
PBS incubated mean adenosine deaminase activity ([1]; 24 hr): 50,287.9 mU/mL

B2: ADA1: human adenosine deaminase 1, monomer, SEQ ID NO:12 (protein, listed as Homo sapiens)
chain: MAQTPAFDKPKVELHVHLDGSIKPETILYYGRRRGIALPANTAEGLLNVIGMDKPLTLPDFLAKFDYYMPAIAGCREAIKRIAYEFVEMKAKEGVVYVEVRYSPHLLANSKVEPIPWNQAEGDLTPDEVVALVGQGLQEGERDFGVKARSILCCMRHQPNWSPKVVELCKKYQQQTVVAIDLAGDETIPGSSLLPGHVQAYQEAVKSGIHRTVHAGEVGSAEVVKEAVDILKTERLGHGYHTLEDQALYNRLRQENMHFEICPWSSYLTGAWKPDTEHAVIRLKNDQANYSLNTDDPLIFKSTLDTDYQMTKRDMGFTEEEFKRLNINAAKSSFLPEDEKRELLDLLYKAYGMPPSASAGQNL
modifications: ADA1 protein; ref <300>: PUBLICATION INFORMATION:; ref <308>: DATABASE ACCESSION NUMBER: NCBI NP_000013.2; ref <309>: DATABASE ENTRY DATE: 2014-05-03
stability in plasma [4]: substantially less stable
pH optimum [5]: ~7.5
pH optimum ([5]; listed as ADA′): 7.5
Km ([6]; for adenosine, wild-type enzyme in humans, read-out: Km): ~52 µM
Km ([6]; read-out: Km for adenosine): ~100 µM
